Data as given in patent US20090099029A1, “Methods and substrates for conducting assays” (Invitrogen Corporation, priority 2005, published 2009).

System: kinases of Table 6 on Myelin Basic Protein (MBP)
Experiment: Kinase assay using MBP substrate, ProQ Diamond stain (Table 6)
Assay type: biochemical
Conditions: kinase printed on MBP-coated slide; 20 uM ATP, 30° C.; ProQ Diamond Microarray Stain; graded Strong/Weak/Negative
Summary of the method: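 Bovine dephosphorylated MBP coated on aldehyde- or epoxy-glass slides, kinases printed on top; reaction buffer pH 7.5 with 4 mM MgCl2, 20 uM ATP, 5% DMSO, ± inhibitor, at 30° C. Phosphorylation detected by ProQ Diamond stain, 30 min in dark.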

B1: IGF1R (protein)
chain: RKRNNSRLGNGVLYASVNPEYFSAADVYVPDEWEVAREKITMSRELGQGSFGMVYEGVAKGVVKDEPETRVAIKTVNEAASMRERIEFLNEASVMKEFNCHHVVRLLGVVSQGQPTLVIMELMTRGDLKSYLRSLRPEMENNPVLAPPSLSKMIQMAGEIADGMAYLNANKFVHRDLAARNCMVAEDFTVKIGDFGMTRDIYETDYYRKGGKGLLPVRWMSPESLKDGVFTTYSDVWSFGVVLWEIATLAEQPYQGLSNEQVLRFVMEGGLLDKPDNCPDMLFELMRMCWQYNPKMRPSFLEIISSIKEEMEPGFREVSFYYSEENKLPEPEELDLEPENMESVPLDPSASSSSLPLPDRHSGHKAENGPGPGVLVLRASFDERQPYAHMNGGRKNERALPLPQSSTC
modifications: left off: small tags and cut ends
Which “MBP Kinase Activity” value does the source give for B1 here?
The value was “Strong”.

B2: INSRR (protein)
chain: YGKKRNRTLYASVNPEYFSASDMYVPDEWEVPREQISIIRELGQGSFGMVYEGLARGLEAGEESTPVALKTVNELASPRECIEFLKEASVMKAFKCHHVVRLLGVVSQGQPTLVIMELMTRGDLKSHLRSLRPEAENNPGLPQPALGEMIQMAGEIADGMAYLAANKFVHRDLAARNCMVSQDFTVKIGDFGMTRDVYETDYYRKGGKGLLPVRWMAPESLKDGIFTTHSDVWSFGVVLWEIVTLAEQPYQGLSNEQVLKFVMDGGVLEELEGCPLQLQELMSRCWQPNPRLRPSFTHILDSIQEELRPSFRLLSFYYSPECRGARGSLPTTDAEPDSSPTPRDCSPQNGGPGH
modifications: left off: a dimerising Fc or GST
Which “MBP Kinase Activity” value does the source give for B2 here?
Its value is “Negative”.

B3: KIT (protein)
chain: TYKYLQKPMYEVQWKVVEEINGNNYVYIDPTQLPYDHKWEFPRNRLSFGKTLGAGAFGKVVEATAYGLIKSDAAMTVAVKMLKPSAHLTEREALMSELKVLSYLGNHMNIVNLLGACTIGGPTLVITEYCCYGDLLNFLRRKRDSFICSKQEDHAEAALYKNLLHSKESSCSDSTNEYMDMKPGVSYVVPTKADKRRSVRIGSYIERDVTPAIMEDDELALDLEDLLSFSYQVAKGMAFLASKNCIHRDLAARNILLTHGRITKICDFGLARDIKNDSNYVVKGNARLPVKWMAPESIFNCVYTFESDVWSYGIFLWELFSLGSSPYPGMPVDSKFYKMIKEGFRMLSPEHAPAEMYDIMKTCWDADPLKRPTFKQIVQLIEKQISESTNHIYSNLANCSPNRQKPVVDHSVRINSVGSTASSSQPLLVHDDV
modifications: left off: small tags and cut ends
For B3, which “MBP Kinase Activity” value is on record?
Its value is “Negative”.

B4: FGFR3 (protein)
chain: RLRSPPKKGLGSPTVHKISRFPLKRQVSLESNASMSSNTPLVRIARLSSGEGPTLANVSELELPADPKWELSRARLTLGKPLGEGCFGQVVMAEAIGIDKDRAAKPVTVAVKMLKDDATDKDLSDLVSEMEMMKMIGKHKNIINLLGACTQGGPLYVLVEYAAKGNLREFLRARRPPGLDYSFDTCKPPEEQLTFKDLVSCAYQVARGMEYLASQKCIHRDLAARNVLVTEDNVMKIADFGLARDVHNLDYYKKTTNGRLPVKWMAPEALFDRVYTHQSDVWSFGVLLWEIFTLGGSPYPGIPVEELFKLLKEGHRMDKPANCTHDLYMIMRECWHAAPSQRPTFKQLVEDLDRVLTVTSTDEYLDLSAPFEQYSPGGQDTPSSSSSGDDSVFAHDLLPPAPPSSGGSRT
modifications: left off: small tags and cut ends
For B4, which “MBP Kinase Activity” value is on record?
Its value is “Strong”.

B5: FLT3 (protein)
chain: HKYKKQFRYESQLQMVQVTGSSDNEYFYVDFREYEYDLKWEFPRENLEFGKVLGSGAFGKVMNATAYGISKTGVSIQVAVKMLKEKADSSEREALMSELKMMTQLGSHENIVNLLGACTLSGPIYLIFEYCCYGDLLNYLRSKREKFHRTWTEIFKEHNFSFYPTFQSHPNSSMPGSREVQIHPDSDQISGLHGNSFHSEDEIEYENQKRLEEEEDLNVLTFEDLLCFAYQVAKGMEFLEFKSCVHRDLAARNVLVTHGKVVKICDFGLARDIMSDSNYVVRGNARLPVKWMAPESLFEGIYTIKSDVWSYGILLWEIFSLGVNPYPGIPVDANFYKLIQNGFKMDQPFYATEEIYIIMQSCWAFDSRKRPSFPNLTSFLGCQLADAEEAMYQNVDGRVSECPHTYQNRRPFSREMDLGLLSPQAQVEDS
modifications: left off: small tags and cut ends
How did the “MBP Kinase Activity” value turn out when B5 was run?
The value was “Strong”.

B6: FGFR4 (protein)
chain: RGQALHGRHPRPPATVQKLSRFPLARQFSLESGSSGKSSSSLVRGVRLSSSGPALLAGLVSLDLPLDPLWEFPRDRLVLGKPLGEGCFGQVVRAEAFGMDPARPDQASTVAVKMLKDNASDKDLADLVSEMEVMKLIGRHKNIINLLGVCTQEGPLYVIVECAAKGNLREFLRARRPPGPDLSPDGPRSSEGPLSFPVLVSCAYQVARGMQYLESRKCIHRDLAARNVLVTEDNVMKIADFGLARGVHHIDYYKKTSNGRLPVKWMAPEALFDRVYTHQSDVWSFGILLWEIFTLGGSPYPGIPVEELFSLLREGHRMDRPPHCPPELYGLMRECWHAAPSQRPTFKQLVEALDKVLLAVSEEYLDLRLTFGPYSPSGGDASSTCSSSDSVFSHDPLPLGSSSFPFGSGVQT
modifications: left off: small tags and cut ends
Which “MBP Kinase Activity” value does the source give for B6 here?
The value was “Strong”.

B7: MERTK (protein)
chain: KRVQETKFGNAFTEEDSELVVNYIAKKSFCRRAIELTLHSLGVSEELQNKLEDVVIDRNLLILGKILGEGEFGSVMEGNLKQEDGTSLKVAVKTMKLDNSSQREIEEFLSEAACMKDFSHPNVIRLLGVCIEMSSQGIPKPMVILPFMKYGDLHTYLLYSRLETGPKHIPLQTLLKFMVDIALGMEYLSNRNFLHRDLAARNCMLRDDMTVCVADFGLSKKIYSGDYYRQGRIAKMPVKWIAIESLADRVYTSKSDVWAFGVTMWEIATRGMTPYPGVQNHEMYDYLLHGHRLKQPEDCLDELYEIMYSCWRTDPLDRPTFSVLRLQLEKLLESLPDVRNQADVIYVNTQLLESSEGLAQGSTLAPLDLNIDPDSIIASCTPRAAISVVTAEVHDSKPHEGRYILNGGSEEWEDLTSAPSAAVTAEKNSVLPGERLVRNGVSWSHSSMLPLGSSLPDELLFADDSSEGSEVLM
modifications: left off: a dimerising Fc or GST
For B7, which “MBP Kinase Activity” value is on record?
Its value is “Strong”.

B8: FLT1(VEGFR1) (protein)
chain: RKMKRSSSEIKTDYLSIIMDPDEVPLDEQCERLPYDASKWEFARERLKLGKSLGRGAFGKVVQASAFGIKKSPTCRTVAVKMLKEGATASEYKALMTELKILTHIGHHLNVVNLLGACTKQGGPLMVIVEYCKYGNLSNYLKSKRDLFFLNKDAALHMEPKKEKMEPGLEQGKKPRLDSVTSSESFASSGFQEDKSLSDVEEEEDSDGFYKEPITMEDLISYSFQVARGMEFLSSRKCIHRDLAARNILLSENNVVKICDFGLARDIYKNPDYVRKGDTRLPLKWMAPESIFDKIYSTKSDVWSYGVLLWEIFSLGGSPYPGVQMDEDFCSRLREGMRMRAPEYSTPEIYQIMLDCWHRDPKERPRFAELVEKLGDLLQANVQQDGKDYIPINAILTGNSGFTYSTPAFSEDFFKESISAPKFNSGSSDDVRYVNAFKFMSLERIKTFEELLPNATSMFDDYQGDSSTLLASPMLKRFTWTDSKPKASLKIDLRVTSKSKESGLSDVSRPSFCHSSCGHVSEGKRRFTYDHAELERKIACCSPPPDYNSVVLYSTPPI
modifications: left off: a dimerising Fc or GST
B8 was tested. Which “MBP Kinase Activity” value did it give?
The value was “Strong”.
